Where two headings read alike, the source gives them in different places.
B1: 9Cy3 primer-template (dsDNA)
DNA 1: GATGAAAATGAAGG
DNA 2: CTCATAATAGCTATCCTTCATTTTCATC
modifications: amino-C6-dT in template
B2: 7Cy3 primer-template (dsDNA)
DNA 1: GATGAAAATGAA
DNA 2: CTCATAATAGCTATCCTTCATTTTCATC
modifications: amino-C6-dT in template
B3: 11Cy3 primer-template (dsDNA)
DNA 1: GATGAAAATGAAGGAT
DNA 2: CTCATAATAGCTATCCTTCATTTTCATC
modifications: amino-C6-dT in template
B4: 10Cy3 primer-template (dsDNA)
DNA 1: GATGAAAATGAAGGA
DNA 2: CTCATAATAGCTATCCTTCATTTTCATC
modifications: amino-C6-dT in template
B5: 8Cy3 primer-template (dsDNA)
DNA 1: GATGAAAATGAAG
DNA 2: CTCATAATAGCTATCCTTCATTTTCATC
modifications: amino-C6-dT in template
B6: 12Cy3 primer-template (dsDNA)
DNA 1: GATGAAAATGAAGGATA
DNA 2: CTCATAATAGCTATCCTTCATTTTCATC
modifications: amino-C6-dT in template

How the values were obtained:
[1] = target: T1, Dpo4 (Sulfolobus solfataricus P2 DNA polymerase IV) (Saccharolobus solfataricus, UniProt Q97W02); experiment: smFRET histogram shift and dissociation rate of the Dpo4-DNA complex; format: binding; conditions: 1 mM; incorrect nucleotide; 8Cy3 primer-template; Ca2+, pH 7.5, 21 °C
T1 sequence (Q97W02 1-352): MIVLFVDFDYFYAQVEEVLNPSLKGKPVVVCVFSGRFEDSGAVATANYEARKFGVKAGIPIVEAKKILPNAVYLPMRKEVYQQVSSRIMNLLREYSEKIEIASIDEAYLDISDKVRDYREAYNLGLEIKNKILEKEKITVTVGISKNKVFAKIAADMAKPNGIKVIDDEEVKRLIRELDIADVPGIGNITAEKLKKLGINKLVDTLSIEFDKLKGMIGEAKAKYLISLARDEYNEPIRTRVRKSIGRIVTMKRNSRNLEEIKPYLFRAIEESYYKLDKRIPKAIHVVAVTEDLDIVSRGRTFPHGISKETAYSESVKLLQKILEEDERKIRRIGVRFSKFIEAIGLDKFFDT

[2] = target: T2, Dpo4 (P2 DNA polymerase IV), wild type, Cy5-labeled (Sulfolobus solfataricus P2, UniProt Q97W02 1-352); experiment: smFRET
T2 sequence: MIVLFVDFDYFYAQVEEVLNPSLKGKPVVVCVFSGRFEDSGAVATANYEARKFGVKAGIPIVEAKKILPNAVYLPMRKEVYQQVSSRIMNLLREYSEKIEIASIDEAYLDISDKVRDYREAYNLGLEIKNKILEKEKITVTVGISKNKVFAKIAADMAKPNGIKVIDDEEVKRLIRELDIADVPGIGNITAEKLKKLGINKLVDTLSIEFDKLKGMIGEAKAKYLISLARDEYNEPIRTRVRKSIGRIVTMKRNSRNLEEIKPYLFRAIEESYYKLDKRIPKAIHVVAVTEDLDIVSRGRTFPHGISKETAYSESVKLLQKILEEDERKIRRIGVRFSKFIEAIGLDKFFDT

[3] = target: T2, Dpo4 (P2 DNA polymerase IV), wild type, …; experiment: smFRET; remark: listed apart in the source
[4] = target: T2, Dpo4 (P2 DNA polymerase IV), wild type, …; experiment: smFRET; remark: listed apart in the source

Molecule	binding result [3]	also measured
Nc1ccn([C@H]2C[C@H](O)[C@@H](COP(=O)(O)OP(=O)(O)OP(=O)(O)O)O2)c(=O)n1 [dCTP]		smFRET histogram shift and dissociation rate of the Dpo4-DNA complex [1]: both dCTP and dTTP induced a low FRET shift identical to that observed
B1		binding result [2]: binds
B2	binds	
B3	binds	
B4	binds	
B5		Kd [4]: 30 ± 10 nM
B6	binds	
